{
  "source": "patent US20170096460",
  "key": {"ZFP 45643 (synthetic)": {"system": "ZFP 45643 (synthetic)", "test": "cell_activity", "details": "AAV9 in mouse striatum, 5 weeks, qRT-PCR; 70% at 12 weeks"}, "ZFP 46025 (synthetic)": {"system": "ZFP 46025 (synthetic)", "test": "cell_activity", "details": "AAV9 in mouse striatum, 5 weeks, qRT-PCR"}},
  "data": [
    {"substance": "mutant Htt allele expanded CAG repeat (Q50, 48 CAGs)", "values": [
      {"measurement": "activity", "setting": "ZFP 45643 (synthetic)", "result": 79, "unit": "% repression"},
      {"measurement": "activity", "setting": "ZFP 46025 (synthetic)", "result": 74, "unit": "% repression"}
    ]}
  ]
}
